Results: FireProtDB (doi:10.1021/bi049320b)

B1: Barstar, P11540 (parent)
chain: MKKAVINGEQIRSISDLHQTLKKELALPEYYGENLDALWDCLTGWVEYPLVLEWRQFEQSKQLTENGAESVLQVFREAKAEGCDITIILS

Variants of: B1
Details: Bacillus amyloliquefaciens, pH 8, 25 °C, Urea, Fluorescence, Tris-HCl 30 mM, structure 1BTA, whole UniProt chain shown

Row | Variant | ddG of mutation (higher = less stable) (KCl 0.5 M) [kJ/mol] | denaturant m value (KCl 0.5 M) [kcal/mol/M] | unfolding free energy (KCl 0.5 M) [kJ/mol] | ddG of mutation (higher = less stable) (KCl 1 M) [kJ/mol] | denaturant m value (KCl 1 M) [kcal/mol/M] | unfolding free energy (KCl 1 M) [kJ/mol] | ddG of mutation (higher = less stable) [kJ/mol] | denaturant m value [kcal/mol/M] | unfolding free energy [kJ/mol] | ddG of mutation (higher = less stable) (KCl 1.0 M) [kJ/mol] | denaturant m value (KCl 1.0 M) [kcal/mol/M] | unfolding free energy (KCl 1.0 M) [kJ/mol] | ddG of mutation (higher = less stable) (KCl 0.5M) [kJ/mol] | denaturant m value (KCl 0.5M) [kcal/mol/M] | unfolding free energy (KCl 0.5M) [kJ/mol]
1 | K79Q | -1.26 | 1.14 | 25.5 | -1.26 | 1.14 | 30.1 | -1.67 | 1.14 | 21.8 | – | – | – | – | – | –
2 | K79A | -0.837 | 1.18 | 25.1 | -0.418 | 1.16 | 29.3 | – | – | – | – | – | – | – | – | –
3 | K61E | 5.44 | 1.19 | 18.8 | – | – | – | 2.51 | 1.44 | 17.6 | 5.86 | 1.13 | 23 | – | – | –
4 | K61L | -1.67 | 1.17 | 25.9 | – | – | – | -4.18 | 1.3 | 24.3 | -1.67 | 1.16 | 30.5 | – | – | –
5 | R76L | -2.93 | 1.13 | 27.2 | – | – | – | -2.93 | 1.13 | 23 | -2.93 | 1.15 | 31.8 | – | – | –
6 | R76Q | – | – | – | 1.67 | 1.17 | 27.2 | – | – | – | – | – | – | 1.67 | 1.15 | 22.6
7 | K23Q | 4.6 | 1.12 | 19.7 | – | – | – | 2.09 | 1.22 | 18 | 4.6 | 1.14 | 24.3 | – | – | –
8 | E58K | 3.77 | 1.14 | 20.5 | – | – | – | 1.67 | 1.25 | 18.4 | 3.77 | 1.16 | 25.1 | – | – | –
9 | K22A | 3.35 | 1.1 | 20.9 | 3.35 | 1.11 | 25.5 | 5.86 | 1.02 | 14.2 | – | – | – | – | – | –
10 | K22Q | 5.02 | 1.18 | 19.2 | 5.02 | 1.12 | 23.8 | 2.93 | 1.32 | 17.2 | – | – | – | – | – | –
